Test results from the DeepSol protein solubility set.

assay: soluble on expression in E. coli; label from the status in PepcDB or PDB records

Sequence	soluble on expression in E. coli
MGSDKIHHHHHHMDKLDNYIVTILEKSITPRKSPFLHTILAGRRTGQAVQDAHLFQMQHLFGLVPNLKLNYLETRLKELMRQGIITVTENGYTVKQKPNFSFEMSFPSFHGFAFQQQVFAFFAHLRLAVQVVSNKHHAEKYYLPVIRDKKVQQFIKIWLQNQQQEDLADRLYIELIKWFNSLAVSRPEFLVERFSGGKLMGYTTEQIATKYQVEKWDVYFEVLHELHRLIAAIKESEEEWPLLASLIPNELMSLTSSAIKTYTLWAKGMDLEMIERIRNLKTSTIQDHFVEIRATLKEAQVPYLPEEELIQSINSRNWHLLRDIKAAFPDLDYYQIRLAVVSKEDEQ	not soluble
MAHHHHHHMSYQPPYGYASSPQASPYFPGGNYYSTPPPIPQQQPFQTSPLFGTEQEAVQWFRAVSSSSGGYISVPQLQSALSQGGMNFSYATTERLISMFDANLDGAIDFTEFQELHRYILSMRGGFSQRDTSRDGLLEGNEVRMALSANFYQVDDNTFQTLMRKFDRRKRGSLGFDDYIELSLFVGKANDAFKAQSQGKASATFSFSSFLSAGASLL	soluble
MEIGQRVRINFEVATVRYIGEVDGYGSQRWVGLEWDDPTRGKHDGIVRGKRYFQTRHPNGGSLMKHEIVPKPTDLLFEIKDRYIEEESVETEIELAQSNKKIELIGMDQTAAKQSNIEKLINIVLDNRSVGFPPSSDSPQFILCRELNLYGNLLYKWKTVRQILEYFPRIQELNLRRNRMQCFNEEEDDDESEGDDHVYSDSCKKLVISECNLSENSIDSILLRFPSTSDVVAFGNDLTRFSVSEAVSSRLTSLDLEDNPFKTLDSIHGTFPNLTQLSVANCGITSLNGFDGSIKFPKLEYLNIKRNSIVEWKSVNSIRSLKSLKRLLFDCKKLSTEKGVHAYEIVIAKLSTLIDLNRFDVSEVERRSAEIRFLNKYAGLNDNEDHQDDIKRLIEIHGEPTLDTAKKGLAVVKIRIECGNRVETRRLPLGMSIQKIRDMLARLFKVPNTSKIRLYLVMSEKAKQHRIELENPLREFGHYSPSEDRDILVVEHD	not soluble
MLMAATIPHIETITFTDWFLAIIDTPDIPIDEIEIRVAEGFKRKLTERQFQQLTELIHLISFIKHKKISNPTLALRIYVDENTSSLSRTALVEAVRMLPPEDNKTYELAAYLAQKNKLERYTNITKVPPLQIYQGDGVFEQYDEWILLFELFGLTQATPSDFIPAIAHLLITKNLGIPDLRALSKFMSTTHKLGILSQSFMNNMTPHLCNGQIIEKYESLLLKLQINDLLTEEILEVIYPLLNQPDALDAFFSLYHEEPSHDSALSFLREILPSFCAMSLPSKESYDDQVPTNTPLHLAVIESDKGNLERTLAFANRNLLIKCSYENTALLLACKLADKESARLILAKMQELGCDVNQRDHHGMTALHWANFYHFDELIRELEIAGADPQLKAANGKTCEYFYQHQFTLKDLKLNGKEIIDGEFKLSDCALTDIAFHMDKIALNLKLTTPSEIAELYARDEIAQIRSSNRFYLFFKLFRPKLINWLEKQNDLEPQVTYRFSGQSSSA	not soluble
MACCLSEEAREQKRINQEIEKQLQRDKRNARRELKLLLLGTGESGKSTFIKQMRIIHGQGYSEEDKRAHIRLVYQNVFMAIQSMIRAMDTLDIKFGNESEELQEKAAVVREVDFESVTSFEEPYVSYIKELWEDSGIQECYDRRREYQLTDSAKYYLSDLRRLAVPDYLPTEQDILRVRVPTTGIIEYPFDLEQIIFRMVDVGGQRSERRKWIHCFENVTSIMFLVALSEYDQVLVECDNENRMEESKALFRTIITYPWFTNSSVILFLNKKDLLEEKILYSHLADYFPEYDGPPRDPIAAREFILKMFVDLNPDADKIIYSHFTCATDTENIRFVFAAVKDTILQHNLKEYNLV	not soluble
MGHHHHHHGGHMSLSNEVERVYPRLLDFVRKKYVSKNLLRVTLTGEDLIGFPEDQNGSHIKVFFPNQASGILQLPIREGDKVIWPEHKPVPRAYTVRQYRAQSNELDIDFVVHGEGTPGGGWALKAQTGSQLGLIGPGGPDPLIEPADWHIMAGDLSAVPAISAILEKMPSQAKGYVFLEVDDIEDKHDISHPEQMVIKWLVRDPNQAQPVLAMAIEQLPVPQGAESLSAFVAGENESVIACRKILRNEYRIARDKIYAIPYWKRGKNEEAYHEERHVVMDEEFEGGS	soluble
MRRRRRRDGFYLAPDFRHREAEDMAGVFDIDLDQPEDAGSEDELEEGGQLNESMDHGGVGPYELGMEHCEKFEISETSVNRGPEKIRPECFELLRVLGKGGYGKVFQVRKVTGANTGKIFAMKVLKKAMIVRNAKDTAHTKAERNILEEVKHPFIVDLIYAFQTGGKPYLILEYLSG	soluble
MAETVGMILCGGFGKRLRPLTEKIPKPLIEIKEGYTILDKQLFDLKNAGINTVYLLTGFLGERIEERYGDNYKGLRIEYVREEKPLGTLNAIRLGMEAIDGEKQCIIRNGDVVADLNIKKMIHLGEMSDYPLTMFITRMQSPYGIVETSGDKIINFREKPLLDYYINAGVYFSKGNLDFGDFESGDIEKTLFPLMAKENKLGYYREDGLFWMAIDTSKELEEIRKEYRNREDKPWGYEKILINTEKYLTKELFIREGYRTSFHYHEEKDETMYIISGSGYIEFDNRKEYFSKNDTIRIEPGERHSIVAMENTVLHEVSTPHLNDTVRVQDYYTRLEHHHHHH	soluble
MANSGEEKLKLYSYWRSSCAHRVRIALALKGLDYEYIPVNLLKGDQFDSDFKKINPMGTVPALVDGDVVINDSFAIIMYLDEKYPEPPLLPRDLHKRAVNYQAMSIVLSGIQPHQNLAVIRYIEEKINVEEKTAWVNNAITKGFTALEKLLVNCAGKHATGDEIYLADLFLAPQIHGAINRFQINMEPYPTLAKCYESYNELPAFQNALPEKQPDAPSSTI	soluble
MQDRIFAFTPKGSLFQLPKGATPIDFAFAVHTNLGAQAVGAKINGRHVPLRTPLGNGDVVEIIKSRTSEPQLEHHHHHH	not soluble
MSLQIVFPTPNQVEMQTGNLILGKKVSMYAEDTTAFYLNLFREEVLSHTPIKWQKKESKADICWITDSSLPPEGYRIKIHPQQMVISASDKGGFTYAVQTLRQWVAGSAGSITFACASVTDYPRTQWRCFLLDSGRQFQKITTIRKYIDMASLLKMNYFHWHLTEGLGWRIEIKQYPHLTRTGGSVGKGEEQQGFYTQEEIRDIIEYARQRNITIVPEIDMPGHAEAALSAYPELGCFGLPVEIPQSGFTQNIFCAGKDGTLRFLKNVLDEVCALFPSPYIHLGGDEAPKGNWDQCPDCRKRITTEGLKDSHDLQLWFSAQMANYLKSKGRKAIFWGDVVYHDGYPLPDNTVIQWWNYRGHKDLALRNAVKHHYPVICSSNYYTYLNFPVTPWKGYTEARTFDLKDVYLNNPSDKAISEKNPLILGMSCALWTDDGVTERMIDRRLFPRILALSEQMWHEGEALDFDRFYRNILHRKAWFEEAGFEFGPALKEDVTKDYKWDEGHHHHHH	soluble
MGSDKIHHHHHHMSQLLRKPERAEISKGVTLVHDVTADNASLEYVSFKALDLSQGATYSETLENKECCIVVVTGKVHVTDHEVTFENIGTRESVFEKKPTDSVYVSNNQTFSIEAVTGARVALCYAPSKNQLPTKLIKAEDNGVEHRGKGNNQRMVHNILPDSDPSANSLLVVEVFTESGNWSSYPPHKHDRDLLPEESLLEETYYHEVNPKQGFVFQRVYTDDRSLDETMTVENENMVIVPKGYHPVGVPEGYASYYLNVMAGPKRIWKFFNDPAHEWIIE	not soluble
MEQKYEEDIQKLQQEIEMLEAEQEETLRSIFVQHGDRLQQGVKSACEERGGGGAQQHTLSKLITEVRELEKDLRRQTEINGITLNECFVKTLHKSERKLIQQLRLAGHCGLLLFQVEFAVTEIQEDNVLHRRVTELNIVVDGVEFKDFSAFVSRVEDTKDLLLFFRTLRTFSERCEDRRQTFQHFQEKYPDVVNLPEGCRSEIMIIRSPQLPGISMTLFWKIHVSKEGVVKPLLDLLLKMPDQALELDTKKVMEKASDYFQSLLQLLGVEASIEGLIRTVCS	not soluble
MSLDISFQIQDAVASVIRAPLASPFRIATGQHDELENVFLKLTTRDGVSGYGEAAVASHITGETVPGTLANLQNAAAALRGQTVDDAESACRQFAAAFAGNHAGLAALEMALLDLSSRVRGIPFYRLFAPVAALEPRLAFSTDITVVIGSLDEARATAREFASRGFKAFKIKIGRDEQLDLARVLAVHEIAPDSQIILDANMGFSAGSMLAFLDRLAAKGVRPVLLEQPVPKMDWDGLSEITAALTGSETLVCADESVGSLADARRAIDSNAVSAINVKFMKSGILEGAEIARLAASRGIRLMLGAMMESALAVTASAHFAAGLACFDYLDMDTTFFLKGELAHSPYLDEHGRFDLHDAGPGIGVEPRFSEGHHHHHH	soluble
MFPQTTMDHILHPTPREGYYVVELNRSVWVVPNYYINLTPIGTGAYGTVCAAECTRSGTRVAIKKFNRPFQSIIHARRTYRELRLLRCMCHENIIDLLDVFTPNENVNDIEDVYFVSMLMGADLSNILKIQRLNDDHIQFLVYQILRGLKYIHSADIIHRDLKPSNIAVNEDCELKILDFGLARQTDSEMTGYVATRWYRAPEIMLNWMHYTQTVDVWSVGCILAELITGKTLFPGSDHIDQLTRIMSVTGTPDEEFLKKISSEEARNYIRNLPKMTRRDFKRLFAQATPQAIDLLEKMLHLDPDRRPTAKEAMEHEYLAAYHDETDEPIAEEMDLNDDVRADTIDEWKKIIWEEISDFQKNVAFADEEEDEEKMES	not soluble
MIDFNVDSARCTRCGQCVADCPSRIIVMATGEYPSIAPGKEFSCLRCEHCLAVCPEAAISILGFSPDGSTPLKGNLPETDQLETLIAGRRSVRRYCPENLSPELIDKLITVASCAPTGVNARKVRFTVLDDREKTAHFRDEVMERLVRLLEEEALPESKAYYARFVKVWQKHKIDLVFRDAPHLLIATAPKSLSTPRQDCVIALTTFELYAQACGIGTLWNGIATWAIEEMLPEMRQRLGIPDDHAFGYAMLFGKPAVRYARTVQHHPPEIYRVPLEHHHHHH	not soluble
MTQVLVRNGIQAVGDGLTSLIIVGKKSVLKNVTFEGKFKEVAQKFVTDGDSWNSMISRIPASGRHPLHYELAHLITVPDASSRGNTPTNAHSIYKELKPINYPEDTKNVHFVLFAEYPDVLSHVAAIARTFCKFSMKTSGIRELNVNIDVVCDKLTNEDAVFLTDLSESVRETARLIDTPANILTTDALVDEAVKVGNATGSKITVIRGEELLKAGFGGIYHVGKAGPTPPAFVVLSHEVPGSTEHIALVGKGVVYDTGGLQIKTKTGMPNMKRDMGGAAGMLEAYSALVKHGFSQTLHACLCIVENNVSPIANKPDDIIKMLSGKTVEINNTDAEGRLILADGVFYAKETLKATTIFDMATLTGAQAWLSGRLHGAAMTNDEQLENEIIKAGKASGDLVAPMLFAPDLFFGDLKSSIADMKNSNLGKMDGPPSAVAGLFIGAHIGFGEGLRWLHLDIAAPAEVGDRGTGYGPALFSTLLGKYTSVPMLKQ	soluble
MSLTEFWNSFSNLFTGGRSTNRKIILVLLIMVLSSGVCSADNYVGGIPLTSAHSGTVSGGVYCDSYYGMGDQEAKASNTIEKTFTVPDNANVEWAMLLTNVYCGHMQNNYQGKAKVDFNGKNLGTETLNVPYTYSYNGGNGHVQVNDHVNRVTSDYMMYYDVTGLVKAGKNTAVVKTDPLDSSFDGRIRLVTLVVAYNDGSKKTIWYQVNRGHDADSYYSDDEMNENYIGSTAFQAALPEGSSLTDSKLTLVYQASSDGAYAFNGNALSSGTPQGTFSGSNTWDVKDSLKSSGTNTLTYDRTASFYKSVLGILTAEYTTSSSGDSTDDTPADNEGHHHHHH	soluble
HVYAFDIQESAVANTKERLGDMYQARTTLFHKSHDKIAESLPPETHGKVAAAVFNLGYLPGGDKSITTNGSSTIKAIEQLLSIMKDEGLIVLVVYHGHPEGKAEKNDVLEFCRDLDQQTARVLTYGFINQQNDPPFIVAIEKKAQISK	not soluble
MHSQVFSAFPHSLPLRSWVNVIKNPQFVFDIHKGSITDACLSVVAQTFMDSCSTSEHRLGKDSPSNKLLYAKDIPSYKSWVERYYADIAKLPAISDQDMNAYLAEQSRLHAVEFNMLSALNEIYSYVSKYSEELIGALEQDEQARRQRLAYKVEQLINAMSIESLEHHHHHH	not soluble
